Test results: paper PMC11741606 (2025)

Columns and labels:
Assay in all cases: SPR
[1] = molecular target: horse aminopeptidase N ectodomain fused with the Fc domain of human IgG (horse (Equus caballus))
[2] = molecular target: Arabian camel aminopeptidase N ectodomain fused with the Fc domain of human IgG (Arabian camel (Camelus dromedarius))
[3] = molecular target: giant panda aminopeptidase N ectodomain fused with the Fc domain of human IgG (giant panda (Ailuropoda melanoleuca))
[4] = molecular target: red fox aminopeptidase N ectodomain fused with the Fc domain of human IgG (red fox (Vulpes vulpes))
[5] = molecular target: T1, dAPN-H751R ectodomain, hFc-tagged (dog (Canis lupus familiaris), UniProt P79143 33-975, H751R)
T1 sequence: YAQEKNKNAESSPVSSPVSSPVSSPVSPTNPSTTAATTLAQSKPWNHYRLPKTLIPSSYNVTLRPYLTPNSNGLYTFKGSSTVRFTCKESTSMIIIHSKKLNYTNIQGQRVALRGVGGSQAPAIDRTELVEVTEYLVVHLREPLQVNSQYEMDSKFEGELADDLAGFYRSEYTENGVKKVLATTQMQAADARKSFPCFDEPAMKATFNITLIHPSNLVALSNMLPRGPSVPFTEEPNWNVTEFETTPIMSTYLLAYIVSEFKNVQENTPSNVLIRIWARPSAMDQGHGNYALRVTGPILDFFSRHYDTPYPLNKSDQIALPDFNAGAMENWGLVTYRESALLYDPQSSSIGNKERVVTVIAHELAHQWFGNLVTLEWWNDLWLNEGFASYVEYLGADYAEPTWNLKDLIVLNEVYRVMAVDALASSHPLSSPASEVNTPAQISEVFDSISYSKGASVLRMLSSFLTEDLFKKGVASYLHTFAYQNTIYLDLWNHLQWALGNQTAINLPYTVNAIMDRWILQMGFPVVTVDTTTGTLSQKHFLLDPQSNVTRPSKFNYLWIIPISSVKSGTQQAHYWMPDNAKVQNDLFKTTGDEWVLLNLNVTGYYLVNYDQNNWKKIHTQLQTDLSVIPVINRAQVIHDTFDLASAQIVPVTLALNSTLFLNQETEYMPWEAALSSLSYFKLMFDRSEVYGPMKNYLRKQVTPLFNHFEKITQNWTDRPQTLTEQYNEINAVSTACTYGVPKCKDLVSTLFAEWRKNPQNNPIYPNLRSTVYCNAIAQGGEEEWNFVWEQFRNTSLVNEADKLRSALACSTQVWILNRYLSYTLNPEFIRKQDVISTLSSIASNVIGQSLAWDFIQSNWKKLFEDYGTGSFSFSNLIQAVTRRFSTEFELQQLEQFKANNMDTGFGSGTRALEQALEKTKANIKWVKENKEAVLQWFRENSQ

[6] = molecular target: T2, dAPN-Q746K-D750E ectodomain, hFc-tagged (dog (Canis lupus familiaris), UniProt P79143 33-975, Q746K | D750E)
T2 sequence: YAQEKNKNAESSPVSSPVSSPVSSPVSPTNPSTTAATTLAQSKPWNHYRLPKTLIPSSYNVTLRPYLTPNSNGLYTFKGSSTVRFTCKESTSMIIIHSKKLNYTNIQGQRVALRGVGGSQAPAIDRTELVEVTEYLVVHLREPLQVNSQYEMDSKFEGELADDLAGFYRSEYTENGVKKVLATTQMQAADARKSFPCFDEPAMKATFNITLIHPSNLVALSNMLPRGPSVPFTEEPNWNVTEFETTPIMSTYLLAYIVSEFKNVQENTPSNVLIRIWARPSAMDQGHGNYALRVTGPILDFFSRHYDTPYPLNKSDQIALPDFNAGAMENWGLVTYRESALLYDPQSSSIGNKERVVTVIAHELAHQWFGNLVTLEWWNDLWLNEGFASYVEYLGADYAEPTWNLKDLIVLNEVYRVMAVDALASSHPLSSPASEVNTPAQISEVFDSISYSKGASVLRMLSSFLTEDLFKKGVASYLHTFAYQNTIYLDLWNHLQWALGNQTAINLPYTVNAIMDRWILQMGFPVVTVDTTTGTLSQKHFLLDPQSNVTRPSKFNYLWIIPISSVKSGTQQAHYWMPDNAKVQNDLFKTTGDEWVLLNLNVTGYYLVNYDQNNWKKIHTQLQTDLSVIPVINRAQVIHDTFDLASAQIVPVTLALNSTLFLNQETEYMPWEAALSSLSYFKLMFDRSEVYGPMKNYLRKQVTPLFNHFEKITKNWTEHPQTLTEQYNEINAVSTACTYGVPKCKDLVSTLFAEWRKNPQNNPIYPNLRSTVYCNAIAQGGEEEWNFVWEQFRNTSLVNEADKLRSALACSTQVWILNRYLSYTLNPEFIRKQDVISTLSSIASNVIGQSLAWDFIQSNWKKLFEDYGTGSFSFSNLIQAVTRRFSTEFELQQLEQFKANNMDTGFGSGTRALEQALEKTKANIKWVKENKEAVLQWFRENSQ

B1: TGEV RBD (receptor-binding domain of the transmissible gastroenteritis coronavirus spike protein) (domain or fragment)
chain: TANLNNGFYPVSSSEVGLVNKSVVLLPSFYTHTIVNITIDLGMKRSGYGQPIASTLSNITLPMQDNNTDVYCIRSDQFSVYVHSTCKSSLWDNIFKRNCTDVLDATAVIKTGTCPFSFDKLNNYLTFNKFCLSLSPVGANCKFDVAARTRTNEQVVRSLYVIYEEGDNIVGVPSD
Kd [1]: 2350 nM | Kd [2]: 6.36 µM | Kd [3]: 765 nM | Kd [4]: 462 nM | Kd [5]: 241 nM | Kd [6]: 1540 nM
